Where a chain is given by its changes, count along the chain named. Names and notes keep the numbering of the source.
How the values were obtained:
[1] = target: Mfn2^WT with a C-terminal 3×FLAG tag (UniProt Q80U63); test: native gel or EMSA; BN-PAGE of untreated isolated mitochondria, lysed in 1% digitonin; 4–16% Bis-Tris native gel at 4°C; anti-FLAG blot
[2] = target: the molecule itself; test: as above

Mfn2^WT with a C-terminal 3×FLAG tag (from UniProt Q80U63 1-757) (natural protein)
stoichiometry N [1]: 2

B1: Mfn2^S378P with a C-terminal 3×FLAG tag (natural protein, UniProt Q80U63 1-757, looked up)
chain: MSLLFSRCNSIVTVKKDKRHMAEVNASPLKHFVTAKKKINGIFEQLGAYIQESASFLEDTHRNTELDPVTTEEQVLDVKGYLSKVRGISEVLARRHMKVAFFGRTSNGKSTVINAMLWDKVLPSGIGHTTNCFLRVGGTDGHEAFLLTEGSEEKKSVKTVNQLAHALHQDEQLHAGSMVSVMWPNSKCPLLKDDLVLMDSPGIDVTTELDSWIDKFCLDADVFVLVANSESTLMQTEKQFFHKVSERLSRPNIFILNNRWDASASEPEYMEEVRRQHMERCTSFLVDELGVVDRAQAGDRIFFVSAKEVLSARVQKAQGMPEGGGALAEGFQVRMFEFQNFERQFEECISQSAVKTKFEQHTVRAKQIAEAVRLIMDPLHIAAQEQRVYCLEMREERQDRLRFIDKQLELLAQDYKLRIKQITEEVERQVSTAMAEEIRRLSVLVDEYQMDFHPSPVVLKVYKNELHRHIEEGLGRNLSDRCSTAIASSLQTMQQDMIDGLKPLLPVSMRNQIDMLVPRQCFSLSYDLNCDKLCADFQEDIEFHFSLGWTMLVNRFLGPKNSRRALLGYSDQVQRPLPLTPANPSMPPLPQSSLTQEELMVSMVTGLASLTSRTSMGILVVGGVVWKAVGWRLIALSFGLYGLLYVYERLTWTTKAKERAFKRQFVEYASEKLQLIISYTGSNCSHQVQQELSGTFAHLCQQVDITRDNLEQEIAAMNKKVEALDSLQSRAKLLRNKAGWLDSELNMFTHQYLQPSR
notes: Mitofusin 2 (Mfn2) with the CMT2A-associated substitution S378P; CMT2A-associated (patient) substitution; also called Mfn2-FLAG variant S378P; source: Mfn2-null MEFs, retroviral transduction, clonal population; isolated mitochondria, lysed; not shown: 3×FLAG, C-terminal, kept
stoichiometry N [2]: 2

B2: Mfn2^Q386P with a C-terminal 3×FLAG tag (natural protein, UniProt Q80U63 1-757, looked up)
chain: B1 chain with P378S, Q386P
notes: Mitofusin 2 (Mfn2) with the CMT2A-associated substitution Q386P; CMT2A-associated (patient) substitution; also called Mfn2-FLAG variant Q386P; source: Mfn2-null MEFs, retroviral transduction, clonal population; isolated mitochondria, lysed; not shown: 3×FLAG, C-terminal, kept
stoichiometry N [2]: 2

B3: Mfn2^A383V with a C-terminal 3×FLAG tag (natural protein, UniProt Q80U63 1-757, looked up)
chain: B1 chain with P378S, A383V
notes: Mitofusin 2 (Mfn2) with the CMT2A-associated substitution A383V; CMT2A-associated (patient) substitution; also called Mfn2-FLAG variant A383V; source: Mfn2-null MEFs, retroviral transduction, clonal population; isolated mitochondria, lysed; not shown: 3×FLAG, C-terminal, kept
stoichiometry N [2]: 2

B4: Mfn2^C390F with a C-terminal 3×FLAG tag (natural protein, UniProt Q80U63 1-757, looked up)
chain: B1 chain with P378S, C390F
notes: Mitofusin 2 (Mfn2) with the CMT2A-associated substitution C390F; CMT2A-associated (patient) substitution; also called Mfn2-FLAG variant C390F; source: Mfn2-null MEFs, retroviral transduction, clonal population; isolated mitochondria, lysed; not shown: 3×FLAG, C-terminal, kept
stoichiometry N [2]: 2

From article PMC7136618, “Defective nucleotide-dependent assembly and membrane fusion in Mfn2 CMT2A variants improved by Bax” (Life Science Alliance, 2020)
